The supplement of paper PMC10567573

B1: ZBED3 (parent)
chain: GPGFHAGTSALWRHLRSAHRRELE
B2: TRAF3IP2 (parent)
chain: KEHVPTWLQNTHVYSWPKNKKNIL
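Further: lentivirally expressed fusions sorted by FACS into six bins by GFP to DsRed ratio, PSI derived from sequencing read proportions per bin multiplied by bin number.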

Variants of: B1
Test: protein stability index of a GFP-peptide fusion (GPS, HEK-293T) (PSI 1-6); higher = more stable
Conditions: c terminus: a fixed tail appended
Work on E22D yielded a protein stability index of 2.06.
Work on E22Q yielded a protein stability index of 1.72.
E22F gave a protein stability index of 2.43.
With E22H the protein stability index was 3.09.
E22L gave a protein stability index of 2.4.
E22W gave a protein stability index of 2.25.
E22C gave a protein stability index of 2.08.
Work on E22A yielded a protein stability index of 2.76.
Work on E22I yielded a protein stability index of 1.95.
E22P gave a protein stability index of 1.77.
E22Y gave a protein stability index of 1.47.
E22T gave a protein stability index of 2.23.
E22V gave a protein stability index of 2.44.
E22R showed a protein stability index of 2.38.
E22N showed a protein stability index of 1.95.
E22S gave a protein stability index of 2.17.
For E22M, the protein stability index was 2.38.
E22K gave a protein stability index of 1.97.
For R21M, the protein stability index was 1.9.
Work on R21G yielded a protein stability index of 1.75.
For R21E, the protein stability index was 2.33.
Variant R21W has a protein stability index of 2.07.
R21D gave a protein stability index of 2.35.
For R21S, the protein stability index was 1.84.
For R21Y, the protein stability index was 2.14.
Variant R21I has a protein stability index of 1.97.
Variant R21A has a protein stability index of 1.7.
R21P showed a protein stability index of 1.95.
For R21L, the protein stability index was 1.77.
Variant R21V has a protein stability index of 1.53.
In the case of R21N, the protein stability index is reported as 1.77.
R21T showed a protein stability index of 2.49.
In the case of R21F, the protein stability index is reported as 1.02.
Work on R21Q yielded a protein stability index of 2.52.
R21K gave a protein stability index of 2.51.
R21C gave a protein stability index of 4.08.
R21H showed a protein stability index of 1.73.
For L23V, the protein stability index was 1.92.
L23T gave a protein stability index of 1.97.
Variant L23S has a protein stability index of 2.36.
Variant L23F has a protein stability index of 2.11.
Variant L23W has a protein stability index of 1.88.
Variant L23D has a protein stability index of 1.95.
For L23R, the protein stability index was 2.91.
L23G showed a protein stability index of 2.32.
With L23Y the protein stability index was 2.42.
With L23I the protein stability index was 2.19.
For L23E, the protein stability index was 2.07.
L23K showed a protein stability index of 2.79.
With L23Q the protein stability index was 2.13.
For L23H, the protein stability index was 2.37.
Variant L23A has a protein stability index of 2.83.
In the case of L23M, the protein stability index is reported as 2.32.
For L23P, the protein stability index was 1.98.
Variant L23N has a protein stability index of 2.03.
Variant L23C has a protein stability index of 2.14.
R20W gave a protein stability index of 2.83.
R20Y gave a protein stability index of 1.62.
Variant E24N has a protein stability index of 1.91.
With E24A the protein stability index was 2.02.
E24F showed a protein stability index of 2.32.
Work on E24T yielded a protein stability index of 2.35.
E24W showed a protein stability index of 1.84.
In the case of E24K, the protein stability index is reported as 3.2.
In the case of E24V, the protein stability index is reported as 2.11.
E24I gave a protein stability index of 2.65.
Variant E24P has a protein stability index of 1.93.
For E24C, the protein stability index was 1.65.
E24S gave a protein stability index of 1.97.
Work on E24D yielded a protein stability index of 1.94.
In the case of E24H, the protein stability index is reported as 1.85.
E24Q gave a protein stability index of 2.51.
In the case of E24Y, the protein stability index is reported as 2.42.
In the case of E24R, the protein stability index is reported as 2.96.
For E24G, the protein stability index was 1.76.
With E24L the protein stability index was 2.
E24M showed a protein stability index of 2.78.

Variants of: B2
Test: as above
Conditions: c terminus: a fixed tail appended
K1T gave a protein stability index of 2.71.
For K1V, the protein stability index was 2.78.
For K1E, the protein stability index was 3.06.
With K1Q the protein stability index was 2.67.
In the case of K1F, the protein stability index is reported as 1.69.
K1Y gave a protein stability index of 1.93.
In the case of K1C, the protein stability index is reported as 2.26.
With K1M the protein stability index was 2.33.
K1G showed a protein stability index of 3.22.
K1H gave a protein stability index of 2.58.
Variant K1W has a protein stability index of 1.98.
Work on K1D yielded a protein stability index of 2.93.
K1L showed a protein stability index of 2.56.
Variant K1P has a protein stability index of 1.97.
K1N showed a protein stability index of 3.12.
Variant K1A has a protein stability index of 3.11.
K1S gave a protein stability index of 2.76.
Work on K1R yielded a protein stability index of 2.42.
With K1I the protein stability index was 1.94.
With E2I the protein stability index was 1.58.
E2K gave a protein stability index of 2.13.
With E2P the protein stability index was 2.25.
With E2V the protein stability index was 2.15.
E2N gave a protein stability index of 2.14.
For E2R, the protein stability index was 3.4.
In the case of E2H, the protein stability index is reported as 2.08.
E2F showed a protein stability index of 1.7.
Variant E2G has a protein stability index of 1.93.
E2S gave a protein stability index of 2.53.
E2W gave a protein stability index of 1.57.
E2L showed a protein stability index of 1.67.
E2M showed a protein stability index of 2.5.
In the case of E2A, the protein stability index is reported as 1.94.
For E2D, the protein stability index was 2.47.
E2Q showed a protein stability index of 2.15.
With E2Y the protein stability index was 2.07.
Variant E2C has a protein stability index of 1.54.
E2T showed a protein stability index of 2.33.
With P5M the protein stability index was 2.27.
Work on P5R yielded a protein stability index of 1.95.
With P5I the protein stability index was 1.
Variant P5D has a protein stability index of 3.08.
P5H gave a protein stability index of 2.06.
Work on P5A yielded a protein stability index of 2.66.
P5S showed a protein stability index of 2.47.
P5C gave a protein stability index of 1.96.
Work on P5K yielded a protein stability index of 1.9.
Variant P5N has a protein stability index of 2.26.
In the case of P5G, the protein stability index is reported as 2.38.
P5E showed a protein stability index of 2.58.
P5Q showed a protein stability index of 1.45.
P5L showed a protein stability index of 1.73.
H3G showed a protein stability index of 3.19.
In the case of H3T, the protein stability index is reported as 2.72.
With H3V the protein stability index was 2.69.
In the case of H3F, the protein stability index is reported as 2.16.
H3M gave a protein stability index of 2.46.
With H3E the protein stability index was 2.51.
H3P gave a protein stability index of 3.67.
Variant H3D has a protein stability index of 2.85.
For H3Q, the protein stability index was 2.62.
For H3W, the protein stability index was 2.02.
H3K gave a protein stability index of 2.83.
Variant H3A has a protein stability index of 2.54.
For H3N, the protein stability index was 3.17.
For H3Y, the protein stability index was 2.03.
For H3C, the protein stability index was 2.42.
Variant H3S has a protein stability index of 2.58.
Work on H3L yielded a protein stability index of 2.6.
H3I gave a protein stability index of 2.53.
Variant H3R has a protein stability index of 2.21.
V4K showed a protein stability index of 2.43.
For V4C, the protein stability index was 1.87.
Work on V4W yielded a protein stability index of 1.93.
In the case of V4M, the protein stability index is reported as 2.35.
Work on V4P yielded a protein stability index of 2.85.
Variant V4S has a protein stability index of 2.77.
Variant V4G has a protein stability index of 2.81.
With V4I the protein stability index was 1.74.
V4N showed a protein stability index of 3.44.
Work on V4E yielded a protein stability index of 3.23.
In the case of V4R, the protein stability index is reported as 2.69.
Variant V4T has a protein stability index of 3.87.
For V4Q, the protein stability index was 3.54.
Work on V4D yielded a protein stability index of 3.29.
V4Y showed a protein stability index of 2.27.
Work on V4H yielded a protein stability index of 2.25.
Variant V4A has a protein stability index of 2.39.
With V4L the protein stability index was 3.21.
Variant V4F has a protein stability index of 2.07.
